According to patent US20030181404A1 (BETH ISRAEL DEACONESS MEDICAL CENTER, published 2003):

Columns and labels:
ErbB-4 = molecular target: T1, ErbB-4 (human (human breast cancer cell line), UniProt Q15303 26-1308, limits assumed); assay: co-immunoprecipitation from HRG-stimulated Flag-CHK MCF-7 lysates
T1 construct: also called p180 ErbB-4

[1] = molecular target: EGF receptor (EGF-R, ErbB-1) (human (human breast cancer cell lines), UniProt P00533 25-1210); assay: co-immunoprecipitation with anti-CHK antibodies from EGF-stimulated Flag-CHK MCF-7 lysates, immunoblot
ErbB-3 = molecular target: T2, ErbB-3 (human (human breast cancer cell line), UniProt P21860 20-1342, tyrosine-phosphorylated upon HRG stimulation (sites not given)); assay: co-immunoprecipitation with anti-CHK antibody from HRG-stimulated Flag-CHK MCF-7 lysates, anti-ErbB-3 immunoblot
T2 construct: also called p180 ErbB-3
T2 sequence (P21860 20-1342 limits assumed): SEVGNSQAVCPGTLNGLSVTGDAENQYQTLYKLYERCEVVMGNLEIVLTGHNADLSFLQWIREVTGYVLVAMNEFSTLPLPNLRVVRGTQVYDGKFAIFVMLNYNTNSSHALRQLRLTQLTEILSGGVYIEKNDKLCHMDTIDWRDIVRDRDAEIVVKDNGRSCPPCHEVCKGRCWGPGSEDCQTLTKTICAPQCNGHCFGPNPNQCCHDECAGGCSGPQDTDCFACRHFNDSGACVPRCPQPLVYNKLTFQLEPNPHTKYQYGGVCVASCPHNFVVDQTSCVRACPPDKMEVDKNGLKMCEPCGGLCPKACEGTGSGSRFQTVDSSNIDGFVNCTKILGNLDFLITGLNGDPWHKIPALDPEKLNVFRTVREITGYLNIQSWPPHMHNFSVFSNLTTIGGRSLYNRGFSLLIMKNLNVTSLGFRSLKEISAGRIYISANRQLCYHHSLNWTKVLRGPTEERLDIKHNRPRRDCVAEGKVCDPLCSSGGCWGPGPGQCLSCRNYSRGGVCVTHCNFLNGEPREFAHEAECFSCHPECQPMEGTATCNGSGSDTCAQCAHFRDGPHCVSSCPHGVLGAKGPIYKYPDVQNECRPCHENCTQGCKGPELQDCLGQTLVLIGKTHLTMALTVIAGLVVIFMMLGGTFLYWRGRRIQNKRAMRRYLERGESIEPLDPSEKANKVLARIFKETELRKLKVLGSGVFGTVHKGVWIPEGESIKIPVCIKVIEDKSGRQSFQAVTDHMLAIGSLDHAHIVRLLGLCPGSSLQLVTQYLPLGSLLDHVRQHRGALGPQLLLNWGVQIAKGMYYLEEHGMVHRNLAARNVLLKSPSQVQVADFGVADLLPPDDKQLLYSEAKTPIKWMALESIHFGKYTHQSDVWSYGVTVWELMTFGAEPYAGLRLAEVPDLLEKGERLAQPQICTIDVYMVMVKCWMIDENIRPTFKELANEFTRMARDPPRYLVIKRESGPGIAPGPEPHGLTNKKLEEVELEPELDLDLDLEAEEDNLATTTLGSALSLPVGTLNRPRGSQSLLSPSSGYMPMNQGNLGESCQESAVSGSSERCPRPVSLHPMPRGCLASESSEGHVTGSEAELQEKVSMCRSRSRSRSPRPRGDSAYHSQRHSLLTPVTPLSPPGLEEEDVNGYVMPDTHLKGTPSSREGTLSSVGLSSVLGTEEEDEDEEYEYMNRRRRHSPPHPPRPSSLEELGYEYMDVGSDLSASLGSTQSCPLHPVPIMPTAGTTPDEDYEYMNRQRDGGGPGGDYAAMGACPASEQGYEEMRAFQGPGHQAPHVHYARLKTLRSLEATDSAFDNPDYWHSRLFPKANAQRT

Measured: binding result

T1 sequence (Q15303 26-1308 limits assumed): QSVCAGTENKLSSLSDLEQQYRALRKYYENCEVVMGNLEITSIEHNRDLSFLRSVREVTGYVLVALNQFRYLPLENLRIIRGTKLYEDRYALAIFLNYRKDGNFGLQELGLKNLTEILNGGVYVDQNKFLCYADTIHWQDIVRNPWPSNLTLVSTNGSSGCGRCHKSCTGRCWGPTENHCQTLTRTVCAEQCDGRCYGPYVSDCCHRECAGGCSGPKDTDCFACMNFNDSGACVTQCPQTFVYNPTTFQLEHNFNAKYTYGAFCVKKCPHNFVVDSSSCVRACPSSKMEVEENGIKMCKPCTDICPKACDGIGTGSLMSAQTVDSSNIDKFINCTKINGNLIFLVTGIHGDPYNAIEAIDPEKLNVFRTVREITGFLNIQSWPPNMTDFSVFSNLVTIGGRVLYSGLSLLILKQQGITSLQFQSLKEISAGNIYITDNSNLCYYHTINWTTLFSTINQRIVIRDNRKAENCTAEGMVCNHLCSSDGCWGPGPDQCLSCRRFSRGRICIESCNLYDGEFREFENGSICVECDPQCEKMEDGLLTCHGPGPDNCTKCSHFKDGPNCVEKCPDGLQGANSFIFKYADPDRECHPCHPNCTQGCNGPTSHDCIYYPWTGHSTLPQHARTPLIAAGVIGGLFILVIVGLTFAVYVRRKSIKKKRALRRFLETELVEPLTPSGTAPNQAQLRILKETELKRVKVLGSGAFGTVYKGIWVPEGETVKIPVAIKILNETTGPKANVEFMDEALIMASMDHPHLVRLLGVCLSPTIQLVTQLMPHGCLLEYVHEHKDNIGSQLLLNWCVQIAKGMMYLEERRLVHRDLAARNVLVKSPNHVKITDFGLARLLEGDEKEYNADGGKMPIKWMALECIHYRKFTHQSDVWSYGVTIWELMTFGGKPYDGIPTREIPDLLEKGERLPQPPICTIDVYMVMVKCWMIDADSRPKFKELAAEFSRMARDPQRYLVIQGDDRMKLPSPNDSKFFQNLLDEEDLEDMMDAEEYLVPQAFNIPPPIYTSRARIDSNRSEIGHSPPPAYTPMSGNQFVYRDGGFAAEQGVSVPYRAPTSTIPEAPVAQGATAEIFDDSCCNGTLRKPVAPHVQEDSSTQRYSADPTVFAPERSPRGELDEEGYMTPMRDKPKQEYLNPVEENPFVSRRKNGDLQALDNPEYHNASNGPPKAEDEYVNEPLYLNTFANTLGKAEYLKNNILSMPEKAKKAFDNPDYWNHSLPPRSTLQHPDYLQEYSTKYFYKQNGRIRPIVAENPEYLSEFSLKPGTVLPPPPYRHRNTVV

B1: Flag-CHK (Flag epitope-tagged CHK expressed in MCF-7 cells from pCDNA3 neo) (enzyme)
chain: DYKDDDDKMAGRGSLVSWRAFHGCDSAEELPRVSPRFLRAWHPPPVSARMPTRRWAPGTQCITKCEHTRPKPGELAFRKGDVVTILEACENKSWYRVKHHTSGQEGLLAAGALRDGEALSADPKLSLMPWFHGKISGQEAVQQLQPPEDGLFLVRESARHPGDYVLCVSFGRDVIHYRVLHRDGHLTIDEAVFFCNLMDMVEHYSKDKGAICTKLVRPKRKHGTKSAEEELARAGWLLNLQHLTLGAQIGEGEFGAVLQGEYLGQKVAVKNIKCDVTAQAFLDETAVMTKMQHENLVRLLGVILHQGLYIVMEHVSKGNLVNFLRTRGRALVNTAQLLQFSLHVAEGMEYLESKKLVHRDLAARNILVSEDLVAKVSDFGLAKAERKGLDSSRLPVKWTAPEALKHGFTSKSDVWSFGVLLWEVFSYGRAPYPKMSLKEVSEAVEKGYRMEPPEGCPGPVHVLMSSCWEAEPPAGHPSANWPRSWPGSYAVQVPQPPSQGRTPTVHLAPKPGALTPPGGPWPQRTERVESAAWGH
notes: An initiator Met stands before the Flag tag; also called intact CHK
no binding: all assays above
